{"source": "paper doi:10.1101/2024.07.30.605912", "about": "(bioRxiv, 2024)", "proteins": {"B1": {"name": "Salmonella typhimurium ArnC (undecaprenyl-phosphate 4-deoxy-4-formamido-L-arabinose transferase) (enzyme)", "chain": "MFDAAPIKKVSVVIPVYNEQESLPELIRRTTTACESLGKAWEILLIDDGSSDSSAELMVKASQEADSHIISILLNRNYGQHAAIMAGFSHVSGDLIITLDADLQNPPEEIPRLVAKADEGFDVVGTVRQNRQDSLFRKSASKIINLLIQRTTGKAMGDYGCMLRAYRRPIIDTMLRCHERSTFIPILANIFARRATEIPVHHAEREFGDSKYSFMRLINLMYDLVTCLTTTPLRLLSLLGSVIAIGGFSLSVLLIVLRLALGPQWAAEGVFMLFAVLFTFIGAQFIGMGLLGEYIGRIYNDVRARPRYFVQQVIYPESTPFTEESHQ"}}, "target": "the molecule itself", "assay": "cryo-EM structure", "data": [{"protein": "B1", "values": [{"measurement": "stoichiometry N", "value": 4}]}]}
